B1: Hab009VL1aVH1-hFc (Fc fusion, part only; not given: Linker and human IgG1 Fc, not shown: a dimerising Fc or GST)
chain, part: DIVMTQSPLSLPVTPGEPASISCRASQTISDYLHWYLQKPGQSPQLLIKYASQSISGVPDRFSGSGSGSDFTLKISRVEAEDVGVYYCQQGHSFPLTFGQGTKLEIKEVQLVQSGAEVKKPGASVKVSCKASGYTFTSYWMHWVRQAPGQRLEWMGTIYPGNSDTRYNQKFKDRVTITADTSASTAYMELSSLRSEDTAVYYCTRSYDYGDLDYWGQGTTVTVSS
B2: Hab009VL2aVH1-hFc (Fc fusion, part only; not given: Linker and human IgG1 Fc, not shown: a dimerising Fc or GST)
chain, part: DIVMTQSPLSLPVTPGEPASISCRASQTISDYLHWYLQKPGQSPRLLIKYASQSISGVPDRFSGSGSGTDFTLKISRVEAEDVGVYYCQQGHSFPLTFGQGTKLEIKEVQLVQSGAEVKKPGASVKVSCKASGYTFTSYWMHWVRQAPGQRLEWMGTIYPGNSDTRYNQKFKDRVTITADTSASTAYMELSSLRSEDTAVYYCTRSYDYGDLDYWGQGTTVTVSS
B3: mab013 scFv-hFc (Fc fusion, part only; not given: linker and human IgG1 Fc, not shown: a dimerising Fc or GST)
scFv, part: DIVLTQSPASLAVSLGQRATISCRASKSVSTSGFSYMHWYQQKPGQPPKLLIYLASNLESGVPARFSGSGSGTDFTLNIHPVEEEDAATYYCQHSRELPFTFGSGTKLEIKQVQLQQSGAELVKPGASVRISCKASGYAFSNYWINWVKQRPGKGLEWIGQINPGDGDTIYNGKFKGKATLTADKSSSTAYMQLSSLTSEDSAVYFCEREGRNYGDFAYWGQGTTLTVSS
B4: mab006 scFv-hFc (Fc fusion, part only; not given: linker and human IgG1 Fc, not shown: a dimerising Fc or GST)
chain, part: DVQITQSPSYLAASPGETITINCRATKSISKYLAWYQEKPGKTNKLLIFSGSTLQSGIPSRFRGSGSGTDFTLTISSLEPEDFAMYYCQQHHEYPYTFGGGTKLEIKQVQLQQPGAELVRPGTSVKLSCKASGYTFTSYWMHWVRQRPGQGLEWIGVIDPSDSLANYNQEFKGKATLTVDTSSSTAYMQLSSLTSEDSAVYYCARDSTVVAPMDYWGQGTSVTVSS
B5: Hab015VL4VH6b-hFc (Fc fusion, part only; not given: VL-VH linker and human IgG1 Fc, not shown: another chain or arm of the molecule; a dimerising Fc or GST; small tags and cut ends)
VL: NIVLTQSPATLSLSPGERATLSCKASENVGTYVSWFQQKPGQSPRLLIYGASNRYTGIPARFSGSGSGTDFTLTISSLEPEDFAVYYCGQFYSFPSTFGGGTKVEIK
VH: EVQLVESGGGLVKPGGSLRLSCAASGITFSNFWMNWVRQAPEKGLEWVGQIRLKSDQYATHYAESVKGRFTISREDSKNTVYLQMNSLKTEDTAVYYCTTGYYFDYWGQGTTVTVSS
B6: Hab006VL4VH2-hFc (Fc fusion, part only; not given: Linker and human IgG1 Fc, not shown: a dimerising Fc or GST)
chain, part: DIVMTQSPDSLAVSLGERATINCRATKSISKYLAWYQQKPGQTNKLLIFSGSTLQSGVPDRFSGSGSGTDFTLTISSLQAEDVAVYYCQQHHEYPYTFGGGTKVEIKEVQLVQSGAEVKKPGASVKVSCKASGYTFTSYWMHWVRQAPGQRLEWMGVIDPSDSLANYNQEFKGRVTLTVDTSASTAYMELSSLRSEDTAVYYCARDSTVVAPMDYWGQGTTVTVSS

Tests used:
[1] = target: DLL3 endogenously expressed on NCI-H82 cells (UniProt Q9NYJ7); experiment: FACS on NCI-H82 cells; antibody 4 nM
[2] = target: DLL3 endogenously expressed on NCI-H82 cells (UniProt Q9NYJ7); experiment: FACS on NCI-H82 cells; antibody 20 nM
[3] = target: DLL3 endogenously expressed on NCI-H82 cells (UniProt Q9NYJ7); experiment: FACS on NCI-H82 cells; antibody 0.8 nM
[4] = target: DLL3 endogenously expressed on NCI-H82 cells (UniProt Q9NYJ7); experiment: FACS on NCI-H82 cells; antibody 100 nM
[5] = target: DLL3 endogenously expressed on NCI-H82 cells (UniProt Q9NYJ7); experiment: FACS on NCI-H82 cells; antibody 0.16 nM
[6] = target: DLL3 endogenously expressed on NCI-H82 cells (UniProt Q9NYJ7); experiment: FACS on NCI-H82 cells; antibody 0.032 nM
[7] = target: DLL3 endogenously expressed on NCI-H82 cells (UniProt Q9NYJ7); experiment: FACS on NCI-H82 cells; antibody 0.0064 nM
[8] = target: DLL3 endogenously expressed on NCI-H82 cells (UniProt Q9NYJ7); experiment: FACS on NCI-H82 cells; antibody 0.00128 nM
[9] = target: human DLL3 protein (extracellular segment, His tag) (human) (UniProt Q9NYJ7); experiment: SPR (Biacore 8K), antibody captured on Protein A chip, DLL3 antigen in solution, 1:1 Langmuir fit
Chain of human DLL3 protein (extracellular segment, His tag) (human) (Q9NYJ7 27-492): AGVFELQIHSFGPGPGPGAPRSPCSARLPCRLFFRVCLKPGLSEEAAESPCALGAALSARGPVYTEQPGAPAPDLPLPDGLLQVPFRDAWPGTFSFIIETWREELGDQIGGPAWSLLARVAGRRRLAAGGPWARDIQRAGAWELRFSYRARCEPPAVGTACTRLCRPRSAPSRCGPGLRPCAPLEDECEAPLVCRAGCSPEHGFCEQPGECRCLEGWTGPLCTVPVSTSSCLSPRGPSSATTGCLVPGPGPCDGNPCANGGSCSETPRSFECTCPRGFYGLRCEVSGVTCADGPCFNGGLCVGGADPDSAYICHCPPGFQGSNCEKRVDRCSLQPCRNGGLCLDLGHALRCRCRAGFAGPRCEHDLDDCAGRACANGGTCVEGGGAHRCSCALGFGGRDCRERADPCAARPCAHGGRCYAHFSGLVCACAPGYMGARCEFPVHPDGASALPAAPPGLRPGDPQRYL

Chain of DLL3 endogenously expressed on NCI-H82 cells (Q9NYJ7 27-618): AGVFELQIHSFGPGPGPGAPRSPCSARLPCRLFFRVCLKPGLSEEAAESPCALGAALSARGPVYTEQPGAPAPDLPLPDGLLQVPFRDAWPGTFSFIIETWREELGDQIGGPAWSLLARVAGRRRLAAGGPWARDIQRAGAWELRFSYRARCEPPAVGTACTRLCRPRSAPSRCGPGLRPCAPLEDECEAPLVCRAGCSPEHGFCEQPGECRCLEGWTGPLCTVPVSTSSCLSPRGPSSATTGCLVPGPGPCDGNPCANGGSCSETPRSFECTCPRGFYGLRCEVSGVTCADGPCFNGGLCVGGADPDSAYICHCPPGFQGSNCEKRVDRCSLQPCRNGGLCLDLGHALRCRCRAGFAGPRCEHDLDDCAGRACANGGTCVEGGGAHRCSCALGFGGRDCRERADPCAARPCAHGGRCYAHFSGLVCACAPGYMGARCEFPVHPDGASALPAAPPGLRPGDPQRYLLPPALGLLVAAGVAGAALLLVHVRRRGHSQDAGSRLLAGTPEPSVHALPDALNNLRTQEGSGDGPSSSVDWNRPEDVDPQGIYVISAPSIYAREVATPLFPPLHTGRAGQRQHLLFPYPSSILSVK

Binder	MFI [1]	MFI [2]	MFI [3]	MFI [4]	MFI [5]	MFI [6]	MFI [7]	MFI [8]	Kd [9]	koff [9]	kon [9]
B1	759	815	722	888	673	379	180	122			
B2	747	789	709	870	671	377	185	124			
B3									0.264 nM	0.00082 s⁻¹	3.11e+06 M⁻¹ s⁻¹
B4	457	488	422	586	416	292	177	123	1.25 nM	0.000203 s⁻¹	162000 M⁻¹ s⁻¹
B5									0.0131 nM	2.5e-05 s⁻¹	1.91e+06 M⁻¹ s⁻¹
B6	445	494	429	588	385	250	151	117			
